The target in assay [1] is V5-tagged Steppke (Step-V5-His) (Drosophila). Nature of the assay: co-IP; FLAG-tagged Jub constructs co-expressed with a V5-tagged partner in Drosophila S2 cells; lysis and washes in RIPA buffer (140 mM NaCl, 10 mM Tris-HCl pH 8.0, 1 mM EDTA, 1.0% Triton X-100, 0.1% SDS, 0.1% sodium deoxycholate); precipitated with anti-V5 agarose beads, blotted with anti-FLAG; band intensity normalised to full length Jub.

Assay [2] addresses N2 domain of α-catenin, tagged with V5 (Drosophila) (UniProt P35220). Described as above.
Chain of UniProt P35220 (P35220 whole entry, the tested form may be a part): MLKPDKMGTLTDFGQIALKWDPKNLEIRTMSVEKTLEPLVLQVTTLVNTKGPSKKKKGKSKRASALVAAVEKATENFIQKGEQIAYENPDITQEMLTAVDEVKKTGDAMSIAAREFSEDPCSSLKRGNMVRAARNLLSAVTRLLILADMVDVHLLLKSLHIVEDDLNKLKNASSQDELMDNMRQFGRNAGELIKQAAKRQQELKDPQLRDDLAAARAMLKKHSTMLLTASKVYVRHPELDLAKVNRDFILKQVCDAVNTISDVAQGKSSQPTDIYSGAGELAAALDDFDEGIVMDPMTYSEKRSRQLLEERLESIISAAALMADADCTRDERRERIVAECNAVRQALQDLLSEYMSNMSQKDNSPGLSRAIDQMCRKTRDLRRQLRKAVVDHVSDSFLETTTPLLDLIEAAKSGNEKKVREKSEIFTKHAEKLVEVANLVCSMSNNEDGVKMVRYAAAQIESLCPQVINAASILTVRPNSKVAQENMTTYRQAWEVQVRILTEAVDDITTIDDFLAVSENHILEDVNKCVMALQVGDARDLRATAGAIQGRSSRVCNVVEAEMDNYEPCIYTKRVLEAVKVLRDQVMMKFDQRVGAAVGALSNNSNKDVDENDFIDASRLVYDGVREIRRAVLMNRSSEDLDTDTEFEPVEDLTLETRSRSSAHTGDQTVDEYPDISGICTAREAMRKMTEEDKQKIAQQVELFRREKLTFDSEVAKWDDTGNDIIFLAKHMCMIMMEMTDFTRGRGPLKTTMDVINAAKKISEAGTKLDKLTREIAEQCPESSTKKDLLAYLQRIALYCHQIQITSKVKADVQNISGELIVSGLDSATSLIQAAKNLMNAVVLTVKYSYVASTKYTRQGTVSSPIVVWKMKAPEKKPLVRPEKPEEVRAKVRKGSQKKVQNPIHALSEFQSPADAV

The substance “Jub preLIM+LIM1 (1-559 and 693-718), FLAG-tagged (from UniProt Q9VY77 1-559; Q9VY77 693-718) (domain or fragment)” yielded a co-precipitation relative to full length Jub (% of full length) in assay [1] of 30. The same measure, in the same setting: the value for “Jub preLIM+LIM2 (1-505, 571-623, and 693-718), FLAG-tagged (from UniProt Q9VY77 1-505; Q9VY77 571-623; Q9VY77 693-718) (domain or fragment)” was more than 64; that for “Jub preLIM+LIM3 (1-505 and 631-718), FLAG-tagged (from UniProt Q9VY77 1-505; Q9VY77 631-718) (domain or fragment)” was 30. On to “Jub preLIM+LIM12 (1-623 and 693-718), FLAG-tagged (from UniProt Q9VY77 1-623; Q9VY77 693-718) (domain or fragment)”, for which the co-immunoprecipitation relative to full length Jub (% of full length) in assay [2] amounted to 170. In assay [1], this substance registered a co-precipitation relative to full length Jub (% of full length) of more than 64. In the same order, the values of “Jub preLIM+LIM13 (1-570 and 631-718), FLAG-tagged (from UniProt Q9VY77 1-570; Q9VY77 631-718) (domain or fragment)” are 50 and more than 64.

In assay [2], “Jub preLIM+LIM23 (1-505, 571-718), FLAG-tagged (from UniProt Q9VY77 1-505; Q9VY77 571-718) (domain or fragment)” gave a co-immunoprecipitation relative to full length Jub (% of full length) of 780. Further, in assay [1], the co-precipitation relative to full length Jub (% of full length) is more than 64. As for “Jub-preLIM (1-505), FLAG-tagged (from UniProt Q9VY77 1-505) (domain or fragment)”, the co-immunoprecipitation relative to full length Jub (% of full length) in assay [2] was found to be 24.

(Values after article PMC9377591.)
